In PMC8632968:

Molecular target: S. cerevisiae full-length Ty3 integrase (assembled on Ty3 LTR DNA as the Ty3 intasome) (S. cerevisiae)
Experiment: cryo-EM structure; minimal integration machinery: Ty3 intasome with TFIIIB on unlabelled 55-bp tD(GUC)K DNA, without TFIIIC; gel filtration in 40 mM Tris pH 7, 80 mM NaCl, 7 mM MgCl2, 1 mM DTT; un-crosslinked; strand-transfer complex, 4.0 Å

## S. cerevisiae full-length Ty3 integrase (assembled on Ty3 LTR DNA as the Ty3 intasome) (enzyme)
  stoichiometry N: 4
